This passage reports Kd, koff and kon results from patent publication US11021532.

B1: COVID19_P24_A09 (scFv, V domains shown)
VH: QVQLVQSGAEVKKPGASVKVSCKASGYTFTDYYMQWVRQAPGQGLEWMGWIDPHSGATNYAHSFQGRVTMTRDTSTSTVYMELSSLRSEDTAVYYCARLEGGSYWTGYFDLWGRGTLVTVSS
VL: EIVMTQSPATLSVSPGERATLSCRASQSVSSNYLAWYQQKPGQAPRLLIYAVSSRATGIPARFSGSGSGTEFTLTISSLQSEDFAVYYCQQYGSSPLTFGGGTKVEIKR
B2: COVID19_P23_F10 (scFv, V domains shown)
VH: QVQLVQSGAEVKKPGASVKVSCKASGDTFSNYGISWVRQAPGQGLEWMGWMNPNSGGTNYAQKFQGRVTMTRDTSTSTVYMELSSLRSEDTAVYYCAIGTTVVTPFGYWGQGTLVNVSS
VL: EIVMTQSPATLSVSPGERATLSCRASESVSSRYLAWYQQKPGQAPRLLIYGASTRATGIPARFSGSGSGTEFTLTISSLQSEDFAVYYCQQGYKNPPTFGQGTKVEIKR
B3: COVID19_P24_C10 (scFv, V domains shown)
VH: QVQLVQSGAEVKKPGASVKVSCKASGYTFTENEMHWVRQAPGQGLEWMGIINPSGGSTSYAQKFQGRVTMTRDTSTSTVYMELSSLRSEDTAVYYCARDSGVDTATLRYYYYGMDVWGQGTTVTVSS
VL: DIQMTQSPSSLSASVGDRVTITCQASQDISKYLNWYQQKPGKAPKLLIYGASTLSDGVPSRFSGSGSGTDFTLTISSLQPEDFATYYCQQGYSTPYSFGQGTKLEIKR
B4: COVID19_P11_D08 (scFv, V domains shown)
VH: B3 VH
VL: B3 VL
B5: COVID19_P24_F11 (scFv, V domains shown)
VH: EVQLLESGGGLVQPGGSLRLSCAASGFTFSGSAMHWVRQAPGKGLEYVSAISRNGGTTYYADSVKGRFTISRDNSKNTLYLQMNSLRAEDTAVYYCAKDGTLITTTLDYWGQGTLVTVSS
VL: DIQMTQSPSSLSASVGDRVTITCRASQSIGYYLNWYQQKPGKAPKLLIYAASSLQSGVPSRFSGSGSGTDFTLTISSLQPEDFATYYCQQSYTTPLTFGGGTKVEIKR
B6: COVID19_P11_H02 (scFv, V domains shown)
VH: QVQLVQSGAEVKKPGASVKVSCKASGGTFTSYHMHWVRQAPGQGLEWMGWMNPNSGNTGYALKFQGRVTMTRDTSTSTVYMELSSLRSEDTAVYYCASFERFGELVPETFDYWGQGTLVTVSS
VL: B5 VL with S28G, G30R, Y31N, Y32D, N34A, T93S, L96P, G100Q, V104L
B7: COVID19_P24_H04 (scFv, V domains shown)
VH: QVQLVQSGAEVKKPGASVKVSCKASGYTFTDYHMHWVRQAPGQGLEWMGWMNPNSGNTSYAQKFQGRVTMTRDTSTSTVYMELSSLRSEDTAVYYCAGMGMGRDGYNSRAFDIWGQGTMVTVSS
VL: B5 VL with G30S, Y31T, S53T, T93S, T94M, G100Q
B8: COVID19_P11_G03 (scFv, V domains shown)
VH: QVQLVQSGAEVKKPGASVKVSCKASGYTFTSYEINWVRQAPGQGLEWMGIINPSDGSSTYAQKFQGRVTMTRDTSTSTVYMELSSLRSEDTAVYYCARDRGYSYDHDQIYYYYGMDVWGQGTTVTVSS
VL: B5 VL with A25V, S28G, G30S, Y31S, S53I, S91G, T93S, L96F, G100P, E105D
B9: COVID19_P24_A11 (scFv, V domains shown)
VH: QVQLVQSGAEVKKPGASVKVSCKASGYTFTENEMHWVRQAPGQGLEWMGIINPSGGSTSYAQKFQGRVTMTRDTSTSTVYMELSSLRSEDTAVYYCARDLMDIVVVPWLGGMDVWGQGTTVTVSS
VL: B5 VL with S28A, G30T, Y31N, N34A, S91Y, T93S, T94Y, L96P, G100Q, V104L
B10: COVID19_P11_D12 (scFv, V domains shown)
VH: B3 VH with R98K, D99T, S100R, G101Y, V102G, D103G, T104N, A105S, T106R, L107S
VL: B5 VL with S28H, G30S, Y31S, S53A, S91G, T93G, L96Y, G100Q
B11: COVID19_P23_G10 (scFv, V domains shown)
VH: QVQLVQSGAEVKKPGSSVKVSCKASGYTFTDYYIQWVRQAPGQGLEWMGWINPNSGGPNYAQKFQGRVTITADESTSTAYMELSSLRSEDTAVYYCARVDYGDYGRLEDYWGQGTLVTVSS
VL: DIQMTQSPSSLSASVGDRVTITCRASQSIYSWLAWYQQKPGKAPKLLIYDASSLESGVPSRFSGSGSGTDFTLTISSLQPEDFATYYCQQLNSYPYTFGQGTKVEIKR
B12: COVID19_P24_G09 (scFv, V domains shown)
VH: QVQLVQSGAEVKKPGASVKVSCKASGYTFTRYYIHWVRQAPGQGLEWMGIINPSGGSTTYAQKFQGRVTMTRDTSTSTVYMELSSLRSEDTAVYYCAKGAPHDYIWGSYRPDAFDIWGQGTMVTVSS
VL: B11 VL with Q27E, S28N, Y30D, D50E, S53T, Q89H, L91Y, N92L, Y94S, Y96E
B13: COVID19_P24_H06 (scFv, V domains shown)
VH: EVQLLESGGGLVQPGGSLRLSCAASGFSFSNYDMHWVRQAPGKGLEWVAVISYDGGFKLYADSVKGRFTISRDNAKNSLYLRMNSLRSEDTAVYYCARGQVRGSGPQVVVMDVWGKGTTVTVSS
VL: DIQMTQSPSSLSASVGDRVTITCQASQGIRNDLGWYQQKPGKAPKLLIYDASRLQSGVPSRFSGSGSGTDFTLTISSLQPEDFATYYCQQYYSTPPLTFGQGTKVEIKR
B14: COVID19_P24_D09 (scFv, V domains shown)
VH: QVQLVQSGAEVKKPGASVKVSCKASGGTFSSYAISWVRQAPGQGLEWMGIVNPSSGSTTYAQKFQGRVTMTRDTSTSTVYMELSSLRSEDTAVYYCARVRGSAAIAMMDVWGQGTTVTVSS
VL: B13 VL with Q24R, G28D, D32E, D50A, R53S, Y91S, L97W, V105L
B15: COVID19_P24_C06 (scFv, V domains shown)
VH: QVQLVQSGAEVKKPGASVKVSCKASGYIFTSYPIHWVRQAPGQGLEWMGWMNPNSGNTGYAQKFQGRVTMTRDTSTSTVYMELSSLRSEDTAVYYCARDRGSYDTDAFDIWGQGTMVTVSS
VL: DIQMTQSPSSLSASVGDRVTITCRASQDISNYLNWYQQKPGKAPKLLIYAASNLQSGVPSRFSGSGSGTDFTLTISSLQPEDFATYYCQQANSFPSTFGQGTKLEIKR
B16: COVID19_P11_H07 (scFv, V domains shown)
VH: QVQLVQSGAEVKKPGASVKVSCKASGYTFTSYDINWVRQAPGQGLEWMGWMNSNSGSTGYAQKFQGRVTMTRDTSTSTVYMELSSLRSEDTAVYYCARGWMAYDAFDIWGQGTMVTVSS
VL: B15 VL with R24Q, D28S, S30Y, A50D, Q55E, S56T, N92I, S96L, Q100G, L104V
B17: COVID19_P24_B09 (scFv, V domains shown)
VH: QVQLVQSGAEVKKPGSSVYVSCKASGYTFTSYGISWVRQAPGQGLEWMGGIIPMFGTTNYAQKFQGRVTITADKSTSTAYMELSSLRSEDTAVYYCARDRGDTIDYWGQGTLVTVSS
VL: B15 VL with D28G, Y32N, N53S, Q55E, A91G, S93G, S96L, Q100P, L104V, E105D

Where a chain is given by its changes, count along the chain named.

For one test, the target named is SARS-CoV-2 Receptor Binding Domain (RBD) protein (SARS-CoV-2). Kind of test: SPR (Carterra LSA), scFv captured via anti-V5, RBD as analyte, 1:1 fit.
The term Kd denotes the equilibrium constant for the complex coming apart. The term koff denotes the first-order rate constant of dissociation. Higher therefore signals fast dissociation. For orientation: kon means the second-order rate constant of association. Read a low kon as slower complex formation. B1 displayed a Kd of 1.51 nM, a koff of 0.000229 s⁻¹ and a kon of 152000 M⁻¹ s⁻¹.

As for B2, the Kd was found to be 7.86 nM, the koff was 0.00077 s⁻¹ and the kon worked out at 98000 M⁻¹ s⁻¹.

B3 displayed a Kd of 0.88 nM, a koff of 0.000487 s⁻¹ and a kon of 553000 M⁻¹ s⁻¹.

As to B4, the Kd is 4.7 nM, the koff came out at 0.00053 s⁻¹ and the kon was found to be 110000 M⁻¹ s⁻¹.

The molecule B5 showed a Kd of 0.46 nM, a koff of 0.00028 s⁻¹ and a kon of 616000 M⁻¹ s⁻¹.

B6 displayed a dissociation constant Kd of 2.2 nM, a koff of 0.00071 s⁻¹ and a kon of 320000 M⁻¹ s⁻¹.

B7 yielded a Kd of 4 nM, a koff of 0.00068 s⁻¹ and a kon of 170000 M⁻¹ s⁻¹.

As for B8, the Kd was 6.45 nM, the koff came to 0.00064 s⁻¹ and the kon was 99000 M⁻¹ s⁻¹.

B9 showed a Kd of 1.95 nM, an off-rate constant (koff) of 0.000308 s⁻¹ and a kon of 158000 M⁻¹ s⁻¹.

Molecule B10 showed a Kd of 4.3 nM, a koff of 0.00034 s⁻¹ and a kon of 79000 M⁻¹ s⁻¹.

For B11, the dissociation constant (Kd) amounted to 0.37 nM, the koff came out at 5.7e-05 s⁻¹ and the kon was determined as 154000 M⁻¹ s⁻¹.

As for B12, the Kd was determined as 1.56 nM, the koff amounted to 0.000512 s⁻¹ and the kon came out at 329000 M⁻¹ s⁻¹.

Molecule B13 had a Kd of 0.5 nM, a koff of 5.7e-05 s⁻¹ and a kon of 120000 M⁻¹ s⁻¹.

As for B14, the Kd is 0.5 nM, the koff amounted to 5.7e-05 s⁻¹ and the kon was determined as 114000 M⁻¹ s⁻¹.

With B15, the Kd is 0.3 nM, the koff came to 5.7e-05 s⁻¹ and the kon amounted to 228000 M⁻¹ s⁻¹.

For B16, the Kd worked out at 0.5 nM, the koff was found to be 5.7e-05 s⁻¹ and the kon is 110000 M⁻¹ s⁻¹.

Consider B17, for which the Kd is 27.5 nM, the koff came to 0.0139 s⁻¹ and the kon stood at 508000 M⁻¹ s⁻¹.

For a further test the target is unchanged. Kind of test: SPR (Carterra LSA), scFv captured via anti-V5, RBD as analyte.
The molecule B1 returned a Kd of less than 50 nM.

B2 came in with a Kd of less than 50 nM.

B3 showed a Kd of less than 50 nM.

On to B4, for which the Kd was less than 50 nM.

For B5, the Kd is less than 50 nM.

On to B6, for which the Kd was less than 50 nM.

B7: the Kd was less than 50 nM.

As for B8, the Kd was less than 50 nM.

In turn, B9 came in with a Kd of less than 50 nM.

With B10, the Kd was less than 50 nM.

B11 came in with a Kd of less than 50 nM.

On to B12, for which the Kd was less than 50 nM.

Regarding B13, the Kd was less than 50 nM.

Take B14: the Kd was less than 50 nM.

As for B15, the Kd is less than 50 nM.

Consider B17, for which the Kd is less than 50 nM.

For the next test the target is unchanged.
Experiment: not given
Molecule B16 showed a Kd of less than 50 nM.
